Assay [1] deals with T1, human CD27 expressed on cells (T cells, transfected HEK293F cells, Daudi cells, NFκB-luc2/CD27 Jurkat … (human, UniProt P26842 20-240)).
T1 construct: also called TNFRSF7
T1 sequence: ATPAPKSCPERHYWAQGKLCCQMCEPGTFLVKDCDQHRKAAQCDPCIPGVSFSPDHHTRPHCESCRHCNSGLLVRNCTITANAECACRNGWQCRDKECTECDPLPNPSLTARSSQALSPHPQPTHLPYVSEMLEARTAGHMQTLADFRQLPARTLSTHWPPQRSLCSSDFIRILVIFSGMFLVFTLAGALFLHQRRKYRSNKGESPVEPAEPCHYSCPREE
Description: flow cytometry on T cells in human PBMC (endogenous CD27), PE-labelled goat anti-human IgG, median MFI PE. The method, then:
(§1) Non-binding control antibody IgG1-b12-FEAR was used as negative control antibody. *N.B. IgG1-CD27-A, -B, -C, -D and -E carried mutations F405L-L234F-L235E-D265A in the IgG Fc domain, which are functionally irrelevant in the context of this experiment.
(§2) Cells were seeded in 96-wells plates (100,000 cells per well; Greiner Bio-one, Cat #650180) for sequential incubations, with washing steps in between with FACS buffer, consisting of PBS (Lonza, Cat #BE17-517Q)+1% BSA (Roche, Cat #10735086001)+0.02% Sodium Azide (Bio-World, Cat #41920044-3). The following incubations were applied: antibody concentration series (0.0001-10 μg/mL final concentration) for 30 min at 4° C.; live/dead marker FVS510 (BD, Cat #564406, diluted 1:1,000 in PBS) for 20 min at RT; PE-labeled polyclonal goat anti-human IgG (Jackson Immuno Research, Cat #109-116-098, diluted 1:500) for 30 min at 4° C.; and anti-CD3 antibody for T-cell identification (anti-human CD3: BD, Cat #555335, diluted 1:10; anti-cyno CD3: Miltenyi, Cat #130-091-998, diluted 1:10) for 30 min at 4° C. All samples were analyzed on a FACSCelesta flow cytometer (BD) and FlowJo software. Data were processed and visualized using GraphPad Prism.
On the technique in general: Flow cytometry measures light scatter and fluorescence of single cells or particles in a stream.

Assay [2] has as its target T2, cynomolgus monkey CD27 expressed on cells (cynomolgus monkey T cells, transfected HEK293F cells) (cynomolgus monkey, UniProt P26842 20-260 (human entry)).
T2 construct: also called cyno CD27
T2 chain: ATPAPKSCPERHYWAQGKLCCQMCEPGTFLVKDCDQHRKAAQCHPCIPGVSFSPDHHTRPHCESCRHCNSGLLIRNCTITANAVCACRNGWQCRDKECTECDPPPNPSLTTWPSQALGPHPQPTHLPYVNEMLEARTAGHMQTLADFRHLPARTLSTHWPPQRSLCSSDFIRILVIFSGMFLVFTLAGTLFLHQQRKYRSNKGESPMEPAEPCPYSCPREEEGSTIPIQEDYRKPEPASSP
Description: flow cytometry on T cells in cynomolgus monkey PBMC (endogenous CD27), PE-labelled goat anti-human IgG, median MFI PE. The method, then:
as §1, §2

The target of assay [3] is T1, human CD27 expressed on cells (T cells, …). Description: flow cytometry on HEK293F cells transiently transfected with human CD27, PE-labelled goat anti-human IgG, median MFI PE.
Assay [4] has as its target T3, human CD27-A59T variant expressed on transiently transfected HEK293F cells (human, UniProt P26842 20-260).
T3 sequence: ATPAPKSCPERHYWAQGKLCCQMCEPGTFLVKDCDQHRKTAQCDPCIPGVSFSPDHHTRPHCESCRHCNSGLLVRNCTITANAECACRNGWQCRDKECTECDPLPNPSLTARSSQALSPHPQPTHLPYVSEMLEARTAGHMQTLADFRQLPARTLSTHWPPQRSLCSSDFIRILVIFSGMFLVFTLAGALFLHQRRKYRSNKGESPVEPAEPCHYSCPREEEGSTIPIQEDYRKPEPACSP
Description: flow cytometry on HEK293F cells transiently transfected with human CD27-A59T, PE-labelled goat anti-human IgG, median MFI PE. The method, then: Approximately 19% of the human population expresses a natural CD27 variant harboring an A59T mutation in the extracellular domain (SEQ ID NO. 2). […] Non-binding antibody IgG1-b12-FEAL was used as a negative control antibody. […] After incubation, antibodies were PE-labeled with polyclonal goat anti-human IgG. Binding was analyzed on a FACSCelesta flow cytometer (BD) and FlowJo software. Data were processed and visualized using GraphPad Prism v.8. *N.B. IgG1-CD27-A, -B and -C carried mutations F405L-L234F-L235E-D265A in the IgG Fc domain, which are functionally irrelevant in the context of this experiment.

In assay [5] the target is T2, cynomolgus monkey CD27 expressed on …. Nature of the assay: flow cytometry on HEK293F cells transiently transfected with cynomolgus monkey CD27, PE-labelled goat anti-human IgG, median MFI PE. On the procedure: as §1, §2
Assay [6] has as its target T4, recombinant His-tagged human FcγRIa (Sino Biological, Cat #10256-H08S-B) (human, UniProt P12314 16-288).
T4 construct: Bought protein; not shown: His tag
Description: SPR (Biacore): His-tagged FcγRIa captured on an anti-His chip, antibody injected; resonance units against antibody concentration. The method, then:
Binding of IgG1-CD27-A-P329R-E345R to human FcγR variants was analyzed using a Biacore surface plasmon resonance (SPR) system and compared to an anti-HIV gp120 antibody IgG1-b12 (ctrl). Biacore Series S Sensor Chips CM5 (Cytiva, Cat #29104988) were covalently coated with anti-His antibody using amine-coupling and His capture kits (Cytiva, Cat #BR100050 and Cat #29234602) according to the manufacturer's instructions. […] After three cycles of buffer, antibody samples were injected for 36 cycles to generate binding curves using antibody ranges of 0-3,000 nM for FcγRI and 0-10,000 nM for the other FcγRs. Each sample that was analyzed on an FcR-coated surface (Active Surface) was also analyzed on a parallel flow-cell without FcR (Reference Surface), which was used for background correction. Dissociation from the anti-His-coated surface was performed by regeneration of the surface using 10 mM Glycine-HCl pH 1.5 (Cytiva, Cat #BR100354). Sensograms were generated using Biacore Insight Evaluation software (Cytiva) and a four-parameter logistic (4PL) fit was applied to calculate relative binding of IgG1-CD27-A-P329R-E345R against the reference sample (ctrl).
For orientation: Surface plasmon resonance follows binding to a sensor surface in real time, without labels.

The target of assay [7] is T5, human FcγRIa on monocyte-derived macrophages (M0, M1, hMDM) (human, UniProt P12314 16-374).
T5 construct: whole, on cells; The macrophages also express FcγRII and FcγRIIIa
Nature of the assay: flow cytometry on M0 monocyte-derived macrophages, PE-labelled goat anti-human IgG.

Assay [8] deals with T1, human CD27 expressed on cells (T cells, …). Nature of the assay: flow cytometry on CD4+ T cells in human PBMC, FITC-conjugated goat anti-human IgG F(ab')2, median FITC. The method, then:
Binding of IgG1-CD27-A-P329R-E345R to CD27 on human healthy donor T cells was characterized in more detail using flow cytometry. Anti-HIV gp120 antibody variant IgG1-b12-P329R-E345R was used as non-binding control antibody (ctrl). Human PBMCs were isolated from buffy coats obtained from human healthy donors. PBMCs (1×10⁵ cells/well) in FACS buffer were added to polystyrene 96-well round-bottom plates (Greiner bio-one, Cat #650101) and pelleted by centrifugation at 300×g for 3 min at 4° C. The cells were resuspended in 50 μL/well serial antibody dilutions in FACS buffer (range 0.0015 to 10 μg/mL in 3-fold dilution steps) and incubated for 30 min at 4° C. Cells were pelleted, washed twice with FACS buffer and incubated in 50 μL/well with FITC-conjugated secondary antibody (FITC AffiniPure F(ab′)₂ fragment goat anti-human IgG, F(ab′)₂ fragment specific, Jackson ImmunoResearch, Cat #109-096-097, diluted 1:100) for 30 min at 4° C. in the dark. […] The samples were measured by flow cytometry on an LSRFortessa (BD) flow cytometer and analyzed using FlowJo software. Binding curves were analyzed using non-linear regression (sigmoidal dose-response with variable slope) using GraphPad Prism 8 software.

The target of assay [9] is T6, human C1q (from normal human serum) (human, UniProt P02745 23-245; P02746 28-253; P02747 29-245).
T6 construct: 20% normal human serum was the source of C1q
Description: flow cytometry: human T cells opsonised with the antibody, 20% normal human serum as source of C1q, FITC-labelled rabbit anti-human C1q.

A word on the EC50 (read off the curve): it is the midpoint of the concentration-response curve.

T4 sequence (P12314 16-288 limits assumed, stated change not applied): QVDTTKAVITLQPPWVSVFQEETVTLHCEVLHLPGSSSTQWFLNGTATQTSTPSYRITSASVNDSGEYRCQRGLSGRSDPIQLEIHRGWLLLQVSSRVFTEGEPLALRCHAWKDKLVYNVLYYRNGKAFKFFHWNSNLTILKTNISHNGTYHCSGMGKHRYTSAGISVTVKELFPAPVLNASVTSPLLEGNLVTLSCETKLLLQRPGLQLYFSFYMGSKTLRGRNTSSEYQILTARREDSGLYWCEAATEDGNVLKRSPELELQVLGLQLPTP
T6 sequence (P02745 23-245 limits assumed, chain 1 of 3): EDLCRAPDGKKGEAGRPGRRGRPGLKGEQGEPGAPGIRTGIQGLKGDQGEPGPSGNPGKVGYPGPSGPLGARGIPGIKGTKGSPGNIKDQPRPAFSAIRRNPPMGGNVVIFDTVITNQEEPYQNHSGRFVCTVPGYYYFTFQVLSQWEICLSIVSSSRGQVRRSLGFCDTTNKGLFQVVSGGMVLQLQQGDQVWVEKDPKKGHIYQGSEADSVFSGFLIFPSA
T6 sequence (P02746 28-253 limits assumed, chain 2 of 3): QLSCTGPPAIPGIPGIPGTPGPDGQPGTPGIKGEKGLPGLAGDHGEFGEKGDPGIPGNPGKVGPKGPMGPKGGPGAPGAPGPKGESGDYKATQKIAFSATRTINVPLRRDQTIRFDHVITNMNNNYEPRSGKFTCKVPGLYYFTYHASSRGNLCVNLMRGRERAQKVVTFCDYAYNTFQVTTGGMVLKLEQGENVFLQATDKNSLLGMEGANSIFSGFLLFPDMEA
T6 sequence (P02747 29-245 limits assumed, chain 3 of 3): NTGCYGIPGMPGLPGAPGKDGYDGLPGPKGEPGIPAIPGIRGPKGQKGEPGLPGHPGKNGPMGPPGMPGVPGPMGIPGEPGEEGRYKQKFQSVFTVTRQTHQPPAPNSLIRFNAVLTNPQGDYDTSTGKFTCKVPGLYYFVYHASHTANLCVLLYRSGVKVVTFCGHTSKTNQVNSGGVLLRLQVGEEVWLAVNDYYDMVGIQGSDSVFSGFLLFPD
T5 sequence (P12314 16-374): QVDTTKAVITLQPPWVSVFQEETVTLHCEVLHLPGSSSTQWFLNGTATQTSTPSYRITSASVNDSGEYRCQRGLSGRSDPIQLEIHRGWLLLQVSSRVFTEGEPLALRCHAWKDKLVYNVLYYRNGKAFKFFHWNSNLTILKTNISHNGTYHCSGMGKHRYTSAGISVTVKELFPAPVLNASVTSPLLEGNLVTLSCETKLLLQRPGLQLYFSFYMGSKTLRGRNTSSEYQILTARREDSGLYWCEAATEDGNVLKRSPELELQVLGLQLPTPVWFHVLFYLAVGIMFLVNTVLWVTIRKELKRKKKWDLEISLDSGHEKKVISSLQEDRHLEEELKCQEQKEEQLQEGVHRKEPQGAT

B1: IgG1-CD27-A carrying mutations F405L-L234F-L235E-D265A in the IgG Fc domain (antibody, V domains shown)
VH: QVQLMQSGSELKKPGASVKVSCRASGYTFTTYAMNWVRQAPGQGPEWMGWINTNTGNPTYAQGFTGRFVFSLDTTVTTTYLQISSLKAEDTAVYFCAREAGSFDYWGQGTLVTVSS
VL: QSALTQPASVSGSPGQSITISCTGTSSDVYYYNYVSWYQQHPGRAPKLVIYDVSNRPSGVSNRFSGSKSGNTASLTISGLRAEDEADYYCSSYTVNRVWVFGGGTKLTVL
On to B1, for which the concentration for a half-maximal effect (EC50 (read off the curve)) was around 0.04 µg/mL in [1]; around 0.04 µg/mL in [2]; around 0.1 µg/mL in [3]; around 0.2 µg/mL in assay [4]; around 0.06 µg/mL in assay [5].

B2: IgG1-b12 (wild-type IgG1 Fc) (antibody)
VH: not shown
VL: EIVLTQSPGTLSLSPGERATFSCRSSHSIRSRRVAWYQHKPGQAPRLVIHGVSNRASGISDRFSGSGSGTDFTLTITRVEPEDFALYYCQVYGASSYTFGQGTKLERKRTVAAPSVFIFPPSDEQLKSGTASVVCLLNNFYPREAKVQWKVDNALQSGNSQESVTEQDSKDSTYSLSSTLTLSKADYEKHKVYACEVTHQGLSSPVTKSFNRGEC
notes: also called WT IgG1-b12; ctrl
With B2, the “EC50 (read off the curve)” value in assay [6] was around 60 nM.

B3: IgG1-b12-P329R-E345R (antibody)
VH: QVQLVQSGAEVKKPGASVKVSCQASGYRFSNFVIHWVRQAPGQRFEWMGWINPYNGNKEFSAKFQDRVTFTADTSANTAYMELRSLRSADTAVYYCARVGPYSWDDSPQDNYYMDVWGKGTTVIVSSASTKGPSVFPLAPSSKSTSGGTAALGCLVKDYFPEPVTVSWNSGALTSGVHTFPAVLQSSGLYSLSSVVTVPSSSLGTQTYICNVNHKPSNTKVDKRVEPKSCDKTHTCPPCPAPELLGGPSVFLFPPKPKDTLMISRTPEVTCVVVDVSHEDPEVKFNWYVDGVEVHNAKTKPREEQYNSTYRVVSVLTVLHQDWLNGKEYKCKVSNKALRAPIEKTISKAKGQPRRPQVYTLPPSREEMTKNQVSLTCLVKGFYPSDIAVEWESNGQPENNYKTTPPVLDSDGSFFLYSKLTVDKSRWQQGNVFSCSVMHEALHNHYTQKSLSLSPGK
VL: B2 VL
notes: also called ctrl; IgG1-b12-E345R-P329R
Consider B3, for which the binding result is recorded as “no binding (tested: 30 µg/mL)” in [7] and “no binding (tested: 10 µg/ml)” in assay [8].

B4: IgG1-CD27-A (wild-type IgG1 Fc) (antibody)
VH: not shown
VL: QSALTQPASVSGSPGQSITISCTGTSSDVYYYNYVSWYQQHPGRAPKLVIYDVSNRPSGVSNRFSGSKSGNTASLTISGLRAEDEADYYCSSYTVNRVWVFGGGTKLTVLGQPKAAPSVTLFPPSSEELQANKATLVCLISDFYPGAVTVAWKADSSPVKAGVETTTPSKQSNNKYAASSYLSLTPEQWKSHRSYSCQVTHEGSTVEKTVAPTECS
notes: Human IgG1 heavy chain backbone, wild-type Fc; also called WT IgG1-CD27-A; IgG-CD27-A
Turning to B4, the binding result in [9] is reported as “no binding (tested: 15 µg/mL)”.

B5: IgG1-b12-FEAL (antibody, V domains shown)
VH: QVQLVQSGAEVKKPGASVKVSCQASGYRFSNFVIHWVRQAPGQRFEWMGWINPYNGNKEFSAKFQDRVTFTADTSANTAYMELRSLRSADTAVYYCARVGPYSWDDSPQDNYYMDVWGKGTTVIVSS
VL: EIVLTQSPGTLSLSPGERATFSCRSSHSIRSRRVAWYQHKPGQAPRLVIHGVSNRASGISDRFSGSGSGTDFTLTITRVEPEDFALYYCQVYGASSYTFGQGTKLERK
notes: also called ctrl
Turning to B5, in assay [4], the binding result is listed as “no binding (tested: 10 µg/mL)”.

Source of the values: patent US20250325643A1 (Genmab, published 2025).
